Data taken from PMC10811483.
pKd: −log10 of the molar value.

Legend:
Assay in all cases: SPR
Z-M_D37AzK = molecular target: Z-M_D37AzK
Z-M_M8AzK = molecular target: Z-M_M8AzK
Z-M_M8AzK-PyOx = molecular target: Z-M_M8AzK-PyOx
Z-M_K33AzK = molecular target: Z-M_K33AzK
Z-M_H19AzK = molecular target: Z-M_H19AzK
Z-M_K33AzK-PyOx = molecular target: Z-M_K33AzK-PyOx
Z-M_H19AzK-PyOx = molecular target: Z-M_H19AzK-PyOx

In the case of trastuzumab WT (antibody), the pKd (Z-M_D37AzK) was 8.45, the pKd (Z-M_M8AzK) was 8.40 and the pKd (Z-M_M8AzK-PyOx) was 8.30. The pKd (Z-M_K33AzK) was 8.31, the pKd (Z-M_H19AzK) was 8.29 and the pKd (Z-M_K33AzK-PyOx) was 8.46. The pKd (Z-M_H19AzK-PyOx) was 8.31.
